Data: patent publication US20250129166A1 (Five Prime, published 2025)

Molecular target: T1, monovalent hVISTA-ECD (amino acids 32-193 of SEQ ID NO: 1 with a 7xHis tail) (human, UniProt Q9H7M9 33-193)
T1 construct: also called huVISTA-His; human VISTA-ECD
Assay: SPR, mAb on Protein A, 37C, pH 6.0; pH 6.0
Description: Binding of several preparations of each of the '029 progeny clones and of the parent '029 antibodies, formatted as IgG1.3 antibodies, to human VISTA at pH 6.0 and 7.4 was measured by Surface plasmon resonance (SPR). SPR analysis was performed to measure koff and KD binding affinity measurements for VISTA Abs at acidic and neutral pHs using a Biacore® T100 instrument (GE Healthcare). Protein A (ThermoFisher Scientific catalog #21181) was diluted to 20 μg/ml in 10 mM sodium acetate pH 4.5 and immobilized onto flow cells of a CM5 biosensor following the manufacturer's amine coupling protocol (GE Healthcare), targeting 2,000 RU immobilization density of Protein A per flow cell. SPR experiments were conducted at 37° C. using PBST (137 mM sodium chloride, 2.7 mM potassium chloride, 10 mM phosphate buffer, 0.05% Tween® 20) running buffer at pH 7.4 and 6.0. Antibodies were diluted to 25 nM in PBST pH 7.4, and were captured across active biosensor flow cells at 5 ul/min for 60 seconds. A concentration series of 50-5 nM monovalent hVISTA-ECD (SEQ ID NO: 325) was prepared in pH 7.4 and 6.0 running buffers, and was injected over the captured antibodies at 40 ul/min to measure association and dissociation. Two 15 second injections of 10 mM glycine pH 1.5 were used to regenerate the Protein A capture surface between assay cycles. Rate constants ka (kₒₙ) and kd (koff) were derived from reference flow cell and 0 nM blank-subtracted sensorgrams, and were fit to a 1:1 binding model in Biacore® T200 Evaluation Software v.2.0. The affinity constant, KD was calculated as the ratio of rate constants koff/kₒₙ for each VISTA antibody.

T1 sequence (Q9H7M9 other isoform, or with tags, fused parts or gaps limits assumed): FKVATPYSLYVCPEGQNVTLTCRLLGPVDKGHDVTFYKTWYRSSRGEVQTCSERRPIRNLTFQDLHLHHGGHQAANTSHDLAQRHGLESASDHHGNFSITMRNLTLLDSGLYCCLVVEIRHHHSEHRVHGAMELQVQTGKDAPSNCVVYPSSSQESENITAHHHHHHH

Binder | Kd | koff | kon
P1-072000 (P1-061029_F100fE_V102D) (antibody, human IgG1, kappa, V domains shown, also called P1-72000) VH: EVQLVESGGGLVQPGKSLRLSCAASGFTLDDYAMHWVRQAPGKGLEWVSGINWNSANIGYADSVKGRFTISRDNAKNSLYLQMNSLRTEDTALYYCAKVPGYSGGWIDAEDDWGQGTMVTVSS VL: not shown | 12 nM | 0.0023 s⁻¹ | 200000 M⁻¹ s⁻¹
P1-071793 (P1-070916_HC_K16R_T84A, FW revertant) (antibody, V domains shown, VH/VL only) VH: EVQLVESGGGLVQPGRSLRLSCAASGFTLEDYAMHWVRQAPGKGLEWVSGINWNSANIGYADSVKGRFTISRDNAKNSLYLQMNSLRAEDTALYYCAKVPGYSGGWIDAEDDWGQGTMVTVSS VL: not shown | 8.1 nM | 0.0017 s⁻¹ | 210000 M⁻¹ s⁻¹
P1-071781 (P1-070906_HC_K16R_T84A, FW revertant) (antibody, V domains shown, VH/VL only) VH: EVQLVESGGGLVQPGRSLRLSCAASGFTLEDYAMHWVRQAPGKGLEWVSGINWNSENIGYADSVKGRFTISRDNAKNSLYLQMNSLRAEDTALYYCAKVPGYSGGWIDAEDDWGQGTMVTVSS VL: not shown | 7.7 nM | 0.0017 s⁻¹ | 220000 M⁻¹ s⁻¹
P1-071763 (P1-068761_HC_K16R_T84A, FW revertant) (antibody, V domains shown, VH/VL only) VH: EVQLVESGGGLVQPGRSLRLSCAASGFTLEDEAMHWVRQAPGKGLEWVSGINWNSEEIGYADSVKGRFTISRDNAKNSLYLQMNSLRAEDTALYYCAKVPGYSHGWIDAEDVWGQGTMVTVSS VL: not shown | 4.9 nM | 0.0014 s⁻¹ | 290000 M⁻¹ s⁻¹
P1-071775 (P1-070868_HC_K16R_T84A, FW revertant) (antibody, V domains shown, VH/VL only) VH: EVQLVESGGGLVQPGRSLRLSCAASGFTLEDEAMHWVRQAPGKGLEWVSGINWNSAEIGYADSVKGRFTISRDNAKNSLYLQMNSLRAEDTALYYCAKVPGYSHGWIDAEDVWGQGTMVTVSS VL: not shown | 6.9 nM | 0.0017 s⁻¹ | 250000 M⁻¹ s⁻¹
P1-071769 (P1-068767_HC_K16R_T84A, FW revertant) (antibody, V domains shown, VH/VL only) VH: EVQLVESGGGLVQPGRSLRLSCAASGFTLEDYAMHWVRQAPGKGLEWVSGIDWNSENIGYADSVKGRFTISRDNAKNSLYLQMNSLRAEDTALYYCAKVPGYSGGWIDAEDDWGQGTMVTVSS VL: not shown | 11 nM | 0.0026 s⁻¹ | 240000 M⁻¹ s⁻¹
P1-071795 (P1-070916_HC_K16R, FW revertant) (antibody, V domains shown, VH/VL only) VH: EVQLVESGGGLVQPGRSLRLSCAASGFTLEDYAMHWVRQAPGKGLEWVSGINWNSANIGYADSVKGRFTISRDNAKNSLYLQMNSLRTEDTALYYCAKVPGYSGGWIDAEDDWGQGTMVTVSS VL: not shown | 8.1 nM | 0.0017 s⁻¹ | 210000 M⁻¹ s⁻¹
P1-071767 (P1-068761_HC_T84A, FW revertant) (antibody, V domains shown, VH/VL only) VH: EVQLVESGGGLVQPGKSLRLSCAASGFTLEDEAMHWVRQAPGKGLEWVSGINWNSEEIGYADSVKGRFTISRDNAKNSLYLQMNSLRAEDTALYYCAKVPGYSHGWIDAEDVWGQGTMVTVSS VL: not shown | 5.1 nM | 0.0016 s⁻¹ | 310000 M⁻¹ s⁻¹
P1-072004 (P1-061029_V102D) (antibody, human IgG1, kappa, V domains shown, also called P1-72004) VH: EVQLVESGGGLVQPGKSLRLSCAASGFTLDDYAMHWVRQAPGKGLEWVSGINWNSANIGYADSVKGRFTISRDNAKNSLYLQMNSLRTEDTALYYCAKVPGYSGGWIDAFDDWGQGTMVTVSS VL: not shown | 180 nM | 0.025 s⁻¹ | 140000 M⁻¹ s⁻¹
P1-071789 (P1-070908_HC_K16R, FW revertant) (antibody, V domains shown, VH/VL only) VH: EVQLVESGGGLVQPGRSLRLSCAASGFTLEDYAMHWVRQAPGKGLEWVSGIDWNSANIGYADSVKGRFTISRDNAKNSLYLQMNSLRTEDTALYYCAKVPGYSGGWIDAEDDWGQGTMVTVSS VL: not shown | 13 nM | 0.0026 s⁻¹ | 210000 M⁻¹ s⁻¹
P1-072008 (P1-061029_Y32E_F100fE) (antibody, human IgG1, kappa, V domains shown, also called P1-72008) VH: EVQLVESGGGLVQPGKSLRLSCAASGFTLDDEAMHWVRQAPGKGLEWVSGINWNSANIGYADSVKGRFTISRDNAKNSLYLQMNSLRTEDTALYYCAKVPGYSGGWIDAEDVWGQGTMVTVSS VL: not shown | 88 nM | 0.024 s⁻¹ | 270000 M⁻¹ s⁻¹
P1-071777 (P1-070868_HC_K16R, FW revertant) (antibody, V domains shown, VH/VL only) VH: EVQLVESGGGLVQPGRSLRLSCAASGFTLEDEAMHWVRQAPGKGLEWVSGINWNSAEIGYADSVKGRFTISRDNAKNSLYLQMNSLRTEDTALYYCAKVPGYSHGWIDAEDVWGQGTMVTVSS VL: not shown | 6.4 nM | 0.0017 s⁻¹ | 270000 M⁻¹ s⁻¹

Next, values leading:

Kd | koff | kon | Binder
7 nM | 0.0018 s⁻¹ | 260000 M⁻¹ s⁻¹ | P1-071779 (P1-070868_HC_T84A, FW revertant) (antibody, V domains shown, VH/VL only) VH: EVQLVESGGGLVQPGKSLRLSCAASGFTLEDEAMHWVRQAPGKGLEWVSGINWNSAEIGYADSVKGRFTISRDNAKNSLYLQMNSLRAEDTALYYCAKVPGYSHGWIDAEDVWGQGTMVTVSS VL: not shown
6.7 nM | 0.0017 s⁻¹ | 250000 M⁻¹ s⁻¹ | P1-071785 (P1-070906_HC_T84A, FW revertant) (antibody, V domains shown, VH/VL only) VH: EVQLVESGGGLVQPGKSLRLSCAASGFTLEDYAMHWVRQAPGKGLEWVSGINWNSENIGYADSVKGRFTISRDNAKNSLYLQMNSLRAEDTALYYCAKVPGYSGGWIDAEDDWGQGTMVTVSS VL: not shown
9.8 nM | 0.0026 s⁻¹ | 270000 M⁻¹ s⁻¹ | P1-071773 (P1-068767_HC_T84A, FW revertant) (antibody, V domains shown, VH/VL only) VH: EVQLVESGGGLVQPGKSLRLSCAASGFTLEDYAMHWVRQAPGKGLEWVSGIDWNSENIGYADSVKGRFTISRDNAKNSLYLQMNSLRAEDTALYYCAKVPGYSGGWIDAEDDWGQGTMVTVSS VL: not shown
13 nM | 0.0027 s⁻¹ | 210000 M⁻¹ s⁻¹ | P1-071787 (P1-070908_HC_K16R_T84A, FW revertant) (antibody, V domains shown, VH/VL only) VH: EVQLVESGGGLVQPGRSLRLSCAASGFTLEDYAMHWVRQAPGKGLEWVSGIDWNSANIGYADSVKGRFTISRDNAKNSLYLQMNSLRAEDTALYYCAKVPGYSGGWIDAEDDWGQGTMVTVSS VL: not shown
5 nM |  | 280000 M⁻¹ s⁻¹ | P1-071765 (P1-068761_HC_K16R, FW revertant) (antibody, V domains shown, VH/VL only) VH: EVQLVESGGGLVQPGRSLRLSCAASGFTLEDEAMHWVRQAPGKGLEWVSGINWNSEEIGYADSVKGRFTISRDNAKNSLYLQMNSLRTEDTALYYCAKVPGYSHGWIDAEDVWGQGTMVTVSS VL: not shown
7.7 nM | 0.0017 s⁻¹ | 220000 M⁻¹ s⁻¹ | P1-071797 (P1-070916_HC_T84A, FW revertant) (antibody, V domains shown, VH/VL only) VH: EVQLVESGGGLVQPGKSLRLSCAASGFTLEDYAMHWVRQAPGKGLEWVSGINWNSANIGYADSVKGRFTISRDNAKNSLYLQMNSLRAEDTALYYCAKVPGYSGGWIDAEDDWGQGTMVTVSS VL: not shown
11 nM | 0.0026 s⁻¹ | 250000 M⁻¹ s⁻¹ | P1-071771 (P1-068767_HC_K16R, FW revertant) (antibody, V domains shown, VH/VL only) VH: EVQLVESGGGLVQPGRSLRLSCAASGFTLEDYAMHWVRQAPGKGLEWVSGIDWNSENIGYADSVKGRFTISRDNAKNSLYLQMNSLRTEDTALYYCAKVPGYSGGWIDAEDDWGQGTMVTVSS VL: not shown
7.6 nM | 0.0017 s⁻¹ | 220000 M⁻¹ s⁻¹ | P1-071783 (P1-070906_HC_K16R, FW revertant) (antibody, V domains shown, VH/VL only) VH: EVQLVESGGGLVQPGRSLRLSCAASGFTLEDYAMHWVRQAPGKGLEWVSGINWNSENIGYADSVKGRFTISRDNAKNSLYLQMNSLRTEDTALYYCAKVPGYSGGWIDAEDDWGQGTMVTVSS VL: not shown
11 nM | 0.0027 s⁻¹ | 240000 M⁻¹ s⁻¹ | P1-071791 (P1-070908_HC_T84A, FW revertant) (antibody, V domains shown, VH/VL only) VH: EVQLVESGGGLVQPGKSLRLSCAASGFTLEDYAMHWVRQAPGKGLEWVSGIDWNSANIGYADSVKGRFTISRDNAKNSLYLQMNSLRAEDTALYYCAKVPGYSGGWIDAEDDWGQGTMVTVSS VL: not shown
